Reference: paper PMC12856111

Experiments:
Assay in all cases: SEC; Superdex 200 Increase 10/300 GL, 4°C; mFAS samples incubated at 37°C for 1 h beforehand to promote dimerization; oligomeric state read from the elution volume
mFASΔTE G2054F (mouse) = mFASΔTE G2054F (mouse) (UniProt P19096)
mFASΔTE T2076F (mouse) = mFASΔTE T2076F (mouse) (UniProt P19096)
mFASΔTE Y2027F (mouse) = mFASΔTE Y2027F (mouse) (UniProt P19096)
mFASΔTE S2014A (mouse) = mFASΔTE S2014A (mouse) (UniProt P19096)
[1] = molecular target: mFASΔTE S2014A/Y2027F (mouse) (UniProt P19096)
[2] = molecular target: mFASΔTE (metazoan fatty acid synthase lacking the TE domain) (mouse) (UniProt P19096)

mFASΔTE G2054F (from UniProt P19096 1-2504) (enzyme)
stoichiometry N (mFASΔTE G2054F (mouse)): 2

mFASΔTE T2076F (from UniProt P19096 1-2504) (enzyme)
stoichiometry N (mFASΔTE T2076F (mouse)): 2

mFASΔTE Y2027F (from UniProt P19096 1-2504) (enzyme)
stoichiometry N (mFASΔTE Y2027F (mouse)): 2

mFASΔTE S2014A (from UniProt P19096 1-2504) (enzyme)
stoichiometry N (mFASΔTE S2014A (mouse)): 2

mFASΔTE S2014A/Y2027F (from UniProt P19096 1-2504) (enzyme)
stoichiometry N [1]: 2

mFASΔTE (metazoan fatty acid synthase lacking the TE domain) (from UniProt P19096 1-2504) (enzyme)
stoichiometry N [2]: 2
